Residue numbers refer to the chain shown, from its start. Like-named read-outs stand apart in the source and are kept apart here.
B1: hCMAb45 humanized anti-CTHRC1 antibody (antibody, V domains shown)
VH: QVQLVESGAEVKKPGASVKVSCKASGYSFTDYIILWVRQAPGQGLEWMGAINPYYGSTVYGQKFQGRLTITADGSMSTAYMELSSLRSEDTAVYYCARSGYGYDESAMDYWGQGTLVTVSS
VL: DIVMTQTPLSLPVTPGEPASISCRSSKSLLNSDGFTYLDWYLQKPGQSPQLLIYLVSNRFSGVPDRFSGSGSGTDFTLKISRVEAEDVGVYYCFQSNYLPLTFGQGTKLEIK
B2: cCMAb45 anti-CTHRC1 chimeric antibody (antibody, V domains shown)
VH: EVQLQQSGPELVKPGASVKISCKASGYSFTDYIMLWVKQSHGKSLEWIGNINPYYGSTSYNLKFKGKATLTVDKSSSTAYMQLNSLTSEDSAVYYCARSGYGYDESAMDYWGQGTSVTVSS
VL: B1 VL with I2V, V3L, T14N, P15I, E17D, P18Q, R24K, S26T, V88L, Q105S
B3: hCMAb96 humanized anti-CTHRC1 antibody (antibody, V domains shown)
VH: QVQLVQSGAEVKKPGASVKVSCKASGYTFTSYWMHWVRQAPGQGLEWIGYIYPSSGTTNYNQKFQGRVTITADESTSTAYMELSPLRSEDTAVYYCTTESYWGQGTTVTVSS
VL: DIQMTQSPSSLSASLGDTITITCHASQNINVWLAWYQQKPGKAPKLLIYKASNLHSGVPSRFSGSGSGTDFTLTISSLQPEDIATYYCQQGQSYPLTFGQGTKVEIK
B4: cCMAb96 anti-CTHRC1 chimeric antibody (antibody, V domains shown)
VH: QVQLQQPGSELVRPGASVKLSCKASGYTFTSYWMHWVKQRPGQGLEWIGNIYPSSGTTNYDEKFKNKATLTVDTSSTTAYMHLSSLTSEDSAVYYCTTESYWGQGTTLTVSS
VL: B3 VL with Q3V, A34S, K42N, A43I, S56T, D70G, Q100G, V104L
B5: CTHRC1-His (other)
chain: GAVGASEIPKGKQKAQLRQREVVDLYNGMCLQGPAGVPGRDGSPGANGIPGTPGIPGRDGFKGEKGECLRESFEESWTPNYKQCSWSSLNYGIDLGKIAECTFTKMRSNSALRVLFSGSLRLKCRNACCQRWYFTFNGAECSGPLPIEAIIYLDQGSPEMNSTINIHRTSSVEGLCEGIGAGLVDVAIWVGTCSDYPKGDASTGWNSVSRIIIEELPKLAASANSAVDHHHHHHHH

How the values were obtained:
Assay in all cases: ELISA
CTHRC1-His [1] = target: B5
CTHRC1-His [2] = target: B5; remark: listed apart in the source
SA2772 = target: SA2772
SA2760 = target: SA2760
SA2764 = target: SA2764
SA2758 = target: SA2758
SA2773 = target: SA2773
SA2766 = target: SA2766
SA2767 = target: SA2767
SA2763 = target: SA2763
SA2771 = target: SA2771

Binder: B1
Kd (CTHRC1-His [1]): 0.089 nM | Kd (CTHRC1-His [2]): 0.128 nM

Binder: B2
Kd (CTHRC1-His [1]): 0.093 nM | Kd (CTHRC1-His [2]): 0.257 nM

Binder: B3
Kd (CTHRC1-His [1]): 0.131 nM | Kd (CTHRC1-His [2]): 0.196 nM

Binder: B4
Kd (CTHRC1-His [1]): 0.128 nM | Kd (CTHRC1-His [2]): 0.187 nM

Binder: B5
Kd (SA2772): 0.406 nM | Kd (SA2760): 0.118 nM | Kd (SA2764): 0.175 nM | Kd (SA2758): 0.082 nM | Kd (SA2773): 0.3 nM | Kd (SA2766): 0.202 nM | Kd (SA2767): 0.48 nM | Kd (SA2763): 0.25 nM | Kd (SA2771): 0.221 nM

Reference: patent publication US20220204599A1 (published 2022)
